Test results as given in patent publication US20240117018A1.

Experiments:
Test in all cases: cell-based or functional assay
[1] = molecular target: Env of HIV-1 pseudovirus 1006_11_C3_1601 (HIV-1)
[2] = molecular target: Env of HIV-1 pseudovirus 1012_11_TC21_3257 (HIV-1)
[3] = molecular target: Env of HIV-1 pseudovirus 1054_07_TC4_1499 (HIV-1)
[4] = molecular target: Env of HIV-1 pseudovirus 263-8 (HIV-1)
[5] = molecular target: Env of HIV-1 pseudovirus 928-28 (HIV-1)
[6] = molecular target: Env of HIV-1 pseudovirus CAAN5342.A2 (HIV-1)
[7] = molecular target: Env of HIV-1 pseudovirus CNE17 (HIV-1)
[8] = molecular target: Env of HIV-1 pseudovirus CNE21 (HIV-1)
[9] = molecular target: Env of HIV-1 pseudovirus Ce1086_B2 (HIV-1)
[10] = molecular target: Env of HIV-1 pseudovirus Ce703010054_2A2 (HIV-1)
[11] = molecular target: Env of HIV-1 pseudovirus Du156.12 (HIV-1)
[12] = molecular target: Env of HIV-1 pseudovirus MS208.A1 (HIV-1)
[13] = molecular target: Env of HIV-1 pseudovirus Q23.17 (HIV-1)
[14] = molecular target: Env of HIV-1 pseudovirus QH0692.42 (HIV-1)
[15] = molecular target: Env of HIV-1 pseudovirus REJO4541.67 (HIV-1)
[16] = molecular target: Env of HIV-1 pseudovirus RHPA4259.7 (HIV-1)
[17] = molecular target: Env of HIV-1 pseudovirus ZM233M.PB6 (HIV-1)
[18] = molecular target: Env of HIV-1 pseudovirus ZM247v1(Rev-) (HIV-1)
[19] = molecular target: HIV-1 Env pseudovirus 231966.c02 (HIV-1)
[20] = molecular target: HIV-1 Env pseudovirus 3817.v2.c59 (HIV-1)
[21] = molecular target: HIV-1 Env pseudovirus 620345.c01 (HIV-1)
[22] = molecular target: HIV-1 Env pseudovirus 6952.v1.c20 (HIV-1)
[23] = molecular target: HIV-1 Env pseudovirus C1080.c03 (HIV-1)
[24] = molecular target: HIV-1 Env pseudovirus C3347.c11 (HIV-1)
[25] = molecular target: HIV-1 Env pseudovirus R1166.c01 (HIV-1)
[26] = molecular target: HIV-1 Env pseudovirus T250-4 (HIV-1)
[27] = molecular target: HIV-1 Env pseudovirus T278-50 (HIV-1)
[28] = molecular target: HIV-1 Env pseudovirus X2088_c9 (HIV-1)

In the case of PG9 (antibody), the IC50 [1] was 0.366 µg/mL, the IC80 [1] was 1.91 µg/mL and the IC50 [2] was 0.172 µg/mL. It also gave an IC80 [2] of 0.605 µg/mL, an IC50 [3] of over 50 µg/mL and an IC80 [3] of over 50 µg/mL. It also gave an IC50 [4] of 0.293 µg/mL, an IC80 [4] of 1.05 µg/mL and an IC50 [5] of 0.101 µg/mL. The IC80 [5] was 0.45 µg/mL, the IC50 [6] was 4.6 µg/mL and the IC80 [6] was 27 µg/mL. For the same substance, the IC50 [7] was 0.21 µg/mL, the IC80 [7] was 0.484 µg/mL and the IC50 [8] was 0.038 µg/mL. For the same substance, the IC80 [8] was 0.094 µg/mL, the IC50 [9] was over 50 µg/mL and the IC80 [9] was over 50 µg/mL. For the same substance, the IC50 [10] was 0.022 µg/mL, the IC80 [10] was 0.103 µg/mL and the IC50 [11] was 0.026 µg/mL. The IC80 [11] was 0.19 µg/mL, the IC50 [12] was 0.005 µg/mL and the IC80 [12] was 0.014 µg/mL. The IC50 [13] was 0.027 µg/mL, the IC80 [13] was 0.082 µg/mL and the IC50 [14] was over 50 µg/mL. For the same substance, the IC80 [14] was over 50 µg/mL, the IC50 [15] was 0.012 µg/mL and the IC80 [15] was 0.163 µg/mL. The IC50 [16] was 22.6 µg/mL, the IC80 [16] was over 50 µg/mL and the IC50 [17] was 0.01 µg/mL. The IC80 [17] was 0.026 µg/mL, the IC50 [18] was 0.112 µg/mL and the IC80 [18] was 0.323 µg/mL.

Work on PG16 (antibody) yielded an IC50 [1] of over 50 µg/mL, an IC80 [1] of over 50 µg/mL and an IC50 [2] of 0.03 µg/mL. The IC80 [2] was 0.219 µg/mL, the IC50 [3] was over 50 µg/mL and the IC80 [3] was over 50 µg/mL. It also gave an IC50 [4] of 0.347 µg/mL, an IC80 [4] of 4.97 µg/mL and an IC50 [5] of 0.034 µg/mL. It also gave an IC80 [5] of 0.237 µg/mL, an IC50 [6] of 1.83 µg/mL and an IC80 [6] of 33 µg/mL. It also gave an IC50 [7] of 0.029 µg/mL, an IC80 [7] of 0.132 µg/mL and an IC50 [8] of 0.007 µg/mL. For the same substance, the IC80 [8] was 0.026 µg/mL, the IC50 [9] was over 50 µg/mL and the IC80 [9] was over 50 µg/mL. The IC50 [10] was 0.008 µg/mL, the IC80 [10] was 0.053 µg/mL and the IC50 [11] was 0.006 µg/mL. The IC80 [11] was 0.026 µg/mL, the IC50 [12] was 0.002 µg/mL and the IC80 [12] was 0.004 µg/mL. It also gave an IC50 [13] of 0.008 µg/mL, an IC80 [13] of 0.043 µg/mL and an IC50 [14] of over 50 µg/mL. The IC80 [14] was over 50 µg/mL, the IC50 [15] was 0.039 µg/mL and the IC80 [15] was 13.4 µg/mL. It also gave an IC50 [16] of 0.375 µg/mL, an IC80 [16] of 3.92 µg/mL and an IC50 [17] of 0.002 µg/mL. It also gave an IC80 [17] of 0.006 µg/mL, an IC50 [18] of 0.016 µg/mL and an IC80 [18] of 0.189 µg/mL.

In the case of 10E8 (antibody), the IC50 [1] was 0.172 µg/mL, the IC80 [1] was 3 µg/mL and the IC50 [2] was 0.244 µg/mL. The IC80 [2] was 4.21 µg/mL, the IC50 [3] was 0.046 µg/mL and the IC80 [3] was 0.305 µg/mL. For the same substance, the IC50 [4] was 0.196 µg/mL, the IC80 [4] was 1.73 µg/mL and the IC50 [5] was 0.384 µg/mL. It also gave an IC80 [5] of 1.96 µg/mL, an IC50 [6] of 1.28 µg/mL and an IC80 [6] of 9.28 µg/mL. The IC50 [7] was 1.11 µg/mL, the IC80 [7] was 5.25 µg/mL and the IC50 [8] was 1.9 µg/mL. For the same substance, the IC80 [8] was over 10 µg/mL, the IC50 [9] was 1.16 µg/mL and the IC80 [9] was 6.93 µg/mL. The IC50 [10] was 2.3 µg/mL, the IC80 [10] was 8.58 µg/mL and the IC50 [11] was 0.034 µg/mL. The IC80 [11] was 0.144 µg/mL, the IC50 [12] was 0.609 µg/mL and the IC80 [12] was 3.72 µg/mL. It also gave an IC50 [13] of 1.64 µg/mL, an IC80 [13] of 7.04 µg/mL and an IC50 [14] of 0.442 µg/mL. The IC80 [14] was 4.05 µg/mL, the IC50 [15] was 0.203 µg/mL and the IC80 [15] was 1.69 µg/mL. It also gave an IC50 [16] of 0.728 µg/mL, an IC80 [16] of 5.28 µg/mL and an IC50 [17] of 0.442 µg/mL. The IC80 [17] was 2.39 µg/mL, the IC50 [18] was 0.506 µg/mL and the IC80 [18] was 6.75 µg/mL.

With 8ANC195 (antibody) the IC50 (Titer in TZM.bl cells) [19] was 0.54 µg/mL, the IC80 (Titer in TZM.bl cells) [19] was 2.98 µg/mL and the IC50 (Titer in TZM.bl cells) [20] was 1 µg/mL. The IC80 (Titer in TZM.bl cells) [20] was 5.3 µg/mL, the IC50 (Titer in TZM.bl cells) [21] was over 50 µg/mL and the IC80 (Titer in TZM.bl cells) [21] was over 50 µg/mL. The IC50 (Titer in TZM.bl cells) [22] was 1.38 µg/mL, the IC80 (Titer in TZM.bl cells) [22] was 7.22 µg/mL and the IC50 (Titer in TZM.bl cells) [23] was 0.17 µg/mL. It also gave an IC80 (Titer in TZM.bl cells) [23] of 1.12 µg/mL, an IC50 (Titer in TZM.bl cells) [24] of over 50 µg/mL and an IC80 (Titer in TZM.bl cells) [24] of over 50 µg/mL. It also gave an IC50 (Titer in TZM.bl cells) [25] of 4.83 µg/mL, an IC80 (Titer in TZM.bl cells) [25] of 4.83 µg/mL and an IC50 (Titer in TZM.bl cells) [26] of over 50 µg/mL. For the same substance, the IC80 (Titer in TZM.bl cells) [26] was over 50 µg/mL, the IC50 (Titer in TZM.bl cells) [27] was over 50 µg/mL and the IC80 (Titer in TZM.bl cells) [27] was over 50 µg/mL. For the same substance, the IC50 (Titer in TZM.bl cells) [28] was over 50 µg/mL and the IC80 (Titer in TZM.bl cells) [28] was over 50 µg/mL.

VRC07 (antibody) was tested, and the IC50 (Titer in TZM.bl cells) [19] was 0.105 µg/mL, the IC80 (Titer in TZM.bl cells) [19] was 0.471 µg/mL and the IC50 (Titer in TZM.bl cells) [20] was 1.9 µg/mL. For the same substance, the IC80 (Titer in TZM.bl cells) [20] was 19.8 µg/mL, the IC50 (Titer in TZM.bl cells) [21] was over 50 µg/mL and the IC80 (Titer in TZM.bl cells) [21] was over 50 µg/mL. For the same substance, the IC50 (Titer in TZM.bl cells) [22] was 0.064 µg/mL, the IC80 (Titer in TZM.bl cells) [22] was 0.181 µg/mL and the IC50 (Titer in TZM.bl cells) [23] was 2.03 µg/mL. It also gave an IC80 (Titer in TZM.bl cells) [23] of 8.25 µg/mL, an IC50 (Titer in TZM.bl cells) [24] of 0.06 µg/mL and an IC80 (Titer in TZM.bl cells) [24] of 0.38 µg/mL. The IC50 (Titer in TZM.bl cells) [25] was 0.81 µg/mL, the IC80 (Titer in TZM.bl cells) [25] was 3.17 µg/mL and the IC50 (Titer in TZM.bl cells) [26] was over 50 µg/mL. The IC80 (Titer in TZM.bl cells) [26] was over 50 µg/mL, the IC50 (Titer in TZM.bl cells) [27] was over 50 µg/mL and the IC80 (Titer in TZM.bl cells) [27] was over 50 µg/mL. For the same substance, the IC50 (Titer in TZM.bl cells) [28] was over 50 µg/mL and the IC80 (Titer in TZM.bl cells) [28] was over 50 µg/mL.

In the case of 3BNC117 (antibody), the IC50 (Titer in TZM.bl cells) [19] was 0.29 µg/mL, the IC80 (Titer in TZM.bl cells) [19] was 2.37 µg/mL and the IC50 (Titer in TZM.bl cells) [20] was 0.15 µg/mL. For the same substance, the IC80 (Titer in TZM.bl cells) [20] was 0.52 µg/mL, the IC50 (Titer in TZM.bl cells) [21] was over 15 µg/mL and the IC80 (Titer in TZM.bl cells) [21] was over 15 µg/mL. For the same substance, the IC50 (Titer in TZM.bl cells) [22] was 0.15 µg/mL, the IC80 (Titer in TZM.bl cells) [22] was 0.75 µg/mL and the IC50 (Titer in TZM.bl cells) [23] was 0.25 µg/mL. For the same substance, the IC80 (Titer in TZM.bl cells) [23] was 1.73 µg/mL, the IC50 (Titer in TZM.bl cells) [24] was 0.03 µg/mL and the IC80 (Titer in TZM.bl cells) [24] was 0.13 µg/mL. It also gave an IC50 (Titer in TZM.bl cells) [25] of 0.17 µg/mL, an IC80 (Titer in TZM.bl cells) [25] of 0.64 µg/mL and an IC50 (Titer in TZM.bl cells) [26] of over 15 µg/mL. For the same substance, the IC80 (Titer in TZM.bl cells) [26] was over 15 µg/mL, the IC50 (Titer in TZM.bl cells) [27] was over 15 µg/mL and the IC80 (Titer in TZM.bl cells) [27] was over 15 µg/mL. The IC50 (Titer in TZM.bl cells) [28] was over 50 µg/mL and the IC80 (Titer in TZM.bl cells) [28] was over 50 µg/mL.
